The results in this text go back to patent US11248243B2, “Process for the biological production of methacrylic acid and derivatives thereof” (MITSUBISHI CHEMICAL UK LIMITED, priority 2015, dated 2022).

Substrate in data set [1]: CC(C)C(=O)SCCNC(=O)CCNC(=O)[C@H](O)C(C)(C)COP(=O)(O)OP(=O)(O)OC[C@H]1O[C@@H](n2cnc3c(N)ncnc32)[C@H](O)[C@@H]1OP(=O)(O)O
Description: Kinetic characterisation of purified carboxy-terminal hexahistidine tagged 4HBT (thioester hydrolysis, DTNB). Format: biochemical. As to conditions: other: substrate of purified CtHis-4HBT (0.075 mg/ml for methacrylyl-CoA, 1 mg/ml for isobutyryl-CoA), DTNB 0.5 mM, Lineweaver-Burke plot; 18.0 °C. As to the method:
(§1) Pure carboxy-terminal His-tagged 4HBT enzyme was then prepared by first growing cultures of E. coli BL21 (DE3) pLysS pET20b(+)::CtHis-4HBT and inducing expression in the exact same manner as was performed for E. coli BL21 (DE3) pLysS pET20b(+)::4HBT. […] Cells were harvested by splitting the cell culture into three centrifuge tubes and centrifuging at 5000 g for 20 min at 4° C. Cell pellets were not washed though, and were instead directly stored at −80° C. A cell free extract of carboxy-terminal hexahistidine tagged 4HBT was prepared by re-suspending one of the E. coli BL21 (DE3) pLysS pET20b(+)::CtHis-4HBT cell pellets in binding buffer (6 ml) for a Nickel-sepharose FPLC column. Binding buffer consisted of NaH2PO4 (10 mM), Na2HPO4 (10 mM), NaCl (500 mM), imidazole (30 mM) and was adjusted to pH 7.4 with HCl. Benzonase® nuclease (0.6 μl) was added to the re-suspended cells before they were lysed in the Constant Systems One Shot cell disrupter. The cell lysate was then clarified by centrifugation at 18,000 g for 15 min at 4° C., followed by centrifugation of the supernatant at 57,750 g for 60 min at 4° C. This supernatant was then loaded onto a GE Healthcare HisTrap™ FF Crude column (1 ml) that was equilibrated with binding buffer. […] Protein elution was monitored at 280 nm and fractions were checked for the presence and purity of carboxy-terminal His-tagged 4HBT by SDS-PAGE. […] The latter dilution in potassium phosphate assay buffer and re-concentration was performed once more and the concentration of CtHIS-4HBT protein was determined by UV280 absorbance in a NanoDrop ND1000 spectrophotometer, using a molar extinction coefficient of 20970M^−1·cm^−1 and a molecular weight of 17516.5 mg·mmol^−1 for the carboxy-terminal His-tagged 4HBT enzyme. The values for the molar extinction coefficient and molecular weight were determined using the Expasy ProtParam tool, using the amino acid translation of the gene sequence encoding the carboxy-terminal his tagged 4HBT enzyme (SEQ. ID 5) in the pET20b(+)::CtHis-4HBT plasmid. […]
(§2) Methacrylyl-CoA hydrolysis reactions (200 μl) were performed in Nunc 96 well plates using purified CtHis-4HBT protein (0.075 mg·ml^−1) and DTNB (0.5 mM) to monitor the reaction. Initial rates were determined for methacrylyl-CoA starting concentrations of 0.375 mM, 0.3 mM, 0.225 mM, 0.15 mM and 0.075 mM. […]
(§3) Isobutyryl-CoA hydrolysis reactions (200 μl) were also performed in Nunc 96 well plates, using purified CtHIS-4HBT protein (1 mg·ml^−1) and DTNB (0.5 mM) to monitor the reaction. Initial rates were determined for isobutyryl-CoA starting concentrations of 0.5 mM, 0.4 mM, 0.3 mM, 0.2 mM and 0.1 mM. […]

Substrate in data set [2]: C=C(C)C(=O)SCCNC(=O)CCNC(=O)[C@H](O)C(C)(C)COP(=O)(O)OP(=O)(O)OC[C@H]1O[C@@H](n2cnc3c(N)ncnc32)[C@H](O)[C@@H]1OP(=O)(O)O
The data set is described as above. It counts as biochemical. Conditions: other: substrate of purified CtHis-4HBT (0.075 mg/ml for methacrylyl-CoA, 1 mg/ml for isobutyryl-CoA), DTNB 0.5 mM, Lineweaver-Burke plot; 18.0 °C. How it is done:
as §1, §2, §3

B1: 4-hydroxybenzoyl-CoA thioesterase (4HBT) (Arthrobacter sp.) (protein)
chain: MHRTSNGSHATGGNLPDVASHYPVAYEQTLDGTVGFVIDEMTPERATASVEVTDTLRQRWGLVHGGAYCALAEMLATEATVAVVHEKGMMAVGQSNHTSFFRPVKEGHVRAEAVRIHAGSTTWFWDVSLRDDAGRLCAVSSMSIAVRPRRDGLEHHHHHH
notes: made in house; host or cells: E. coli BL21 (DE3) pLysS pET20b(+)::CtHis-4HBT
With B1, the Km was determined as 3000 µM in data set [1] and 1600 µM in data set [2]. In addition, the Vmax was 16.7 nmols·mg^−1·min^−1 in data set [1] and 470 nmols·mg^−1·min^−1 in data set [2].
